From patent publication US20220064295A1 (ITABMED HK, published 2022)

How the values were obtained:
Assay in all cases: BLI (Octet), antigen-Fc captured on anti-human Fc (AHC) biosensor, MSAP in solution
[1] = molecular target: T1, cynomolgus CD3 antigen construct cynoCD3εAA 1-27.Fc (cynomolgus monkey; human, UniProt Q95LI5 22-48)
T1 construct: range 1-27; not shown: human IgG Fc
T1 chain (looked up): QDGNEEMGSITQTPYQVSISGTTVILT
Procedure: (§1) The expression of the CD3 antigen constructs has been described in U.S. Pat. No. 8,846,042. The CD3 antigen constructs or the CD19 antigen (Cynomolgus/Rhesus CD19 Protein (Fc Tag), Sino Biological. Inc; Recombinant Human CD19 Fc Chimera, R&D Systems. Inc) were diluted to 0.02 mg/mL with dilution (PBS), and then immobilized on an anti-Human Fc capture (AHC) biosensor. […] Control wells containing PBS only were also set up. The detection results were analyzed using ForteBio Data Acquisition and ForteBio Data Analysis software.

[2] = molecular target: T2, Recombinant Human CD19 Fc Chimera (R&D Systems, Inc) (human, UniProt P15391 20-291)
T2 construct: Bought reagent; also called huCD19.Fc; human CD19 antigen; Fc part of the bought chimera not given
T2 sequence (looked up): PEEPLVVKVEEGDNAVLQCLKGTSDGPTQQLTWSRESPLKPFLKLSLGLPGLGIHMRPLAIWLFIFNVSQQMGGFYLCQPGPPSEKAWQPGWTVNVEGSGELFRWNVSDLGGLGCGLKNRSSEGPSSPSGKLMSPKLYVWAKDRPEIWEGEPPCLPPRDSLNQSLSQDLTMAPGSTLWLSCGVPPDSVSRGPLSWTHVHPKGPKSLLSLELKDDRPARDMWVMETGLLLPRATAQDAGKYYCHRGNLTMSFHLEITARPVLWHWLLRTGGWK
Procedure: as §1

[3] = molecular target: T3, Cynomolgus/Rhesus CD19 Protein (Fc Tag) (Sino Biological, Inc) (cynomolgus monkey (Cynomolgus/Rhesus), UniProt F7F486 20-292 (rhesus entry))
T3 construct: Bought reagent; also called cynoCD19.Fc; cynomolgus CD19 antigen
T3 sequence: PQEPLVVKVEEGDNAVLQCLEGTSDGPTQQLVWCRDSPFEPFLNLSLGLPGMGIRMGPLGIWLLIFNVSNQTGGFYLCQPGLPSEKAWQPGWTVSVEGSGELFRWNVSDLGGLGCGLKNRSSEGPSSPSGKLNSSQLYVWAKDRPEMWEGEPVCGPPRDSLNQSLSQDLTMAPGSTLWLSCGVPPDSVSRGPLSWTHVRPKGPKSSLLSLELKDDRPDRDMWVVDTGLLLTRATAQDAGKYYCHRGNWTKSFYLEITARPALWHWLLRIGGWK
Procedure: as §1

Row | Binder | Kd [1] [nM] | Kd [2] [nM] | Kd [3] [nM]
1 | ITAB2009 CD19×CD3 MSAP (bispecific antibody, also called CD19×CD3 MSAP ITAB2009; bivalent format ITAB2009) chain 1: EVQLVESGGGLVQPGGSLRLSCAASGFTFNTYAMNWVRQAPGKGLEWVARIRSKYNNYATYYADSVKDRFTISRDDSKNTLYLQMNSLRAEDTAVYYCVRHGNFGNSYVSWFAYWGQGTMVTVSSGGGGSGGGGSGGGGSQAVVTQEPSLTVSPGGTVTLTCRSSTGAVTTSNYANWVQQKPGQAPRGLIGGTNKRAPGTPARFSGSLLGGKAALTLSGVQPEDEAEYYCALWYSNLWVFGGGTKLTVLSGGGGSQVQLVQSGPELIKPGGSVKMSCKASGYTFTSYVMHWVRQKPGQGLEWIGYINPYNDGTKYNEKFKGRATLTSDKSSSTAYMELSSLRSEDSAVYYCARGTYYYGSRVFDYWGQGTTVTVSSASTKGPSVFPLAPSSKSTSGGTAALGCLVKDYFPEPVTVSWNSGALTSGVHTFPAVLQSSGLYSLSSVVTVPSSSLGTQTYICNVNHKPSNTKVDKKVEPKSCPPCS chain 2: DVVMTQSPSSIPVTLGESVSISCRSSKSLQNVNGNTYLYWFQQRPGQSPQLLIYRMSNLNSGVPDRFSGSGSGTDFTLRISGVEPEDVGVYYCMQHLEYPITFGAGTKLEIKRTVAAPSVFIFPPSDEQLKSGTASVVCLLNNFYPREAKVQWKVDNALQSGNSQESVTEQDSKDSTYSLSSTLTLSKADYEKHKVYACEVTHQGLSSPVTKSFNRGECPPCS | 12.9 | 18.2 | 29.6
2 | ITAB2007 CD19×CD3 MSAP (bispecific antibody, One anti-CD19 scFv is fused at the N-terminus of the VH and a second at the N-terminus of the VL of an anti-CD3 Fab fragment; also called CD19×CD3 MSAP ITAB2007; bispecific trivalent ITAB2007) chain 1: DVVMTQSPSSIPVTLGESVSISCRSSKSLQNVNGNTYLYWFQQRPGQSPQLLIYRMSNLNSGVPDRFSGSGSGTDFTLRISGVEPEDVGVYYCMQHLEYPLTFGAGTKLEIKGGGGSGGGGSGGGGSQVQLVQSGPELIKPGGSVKMSCKASGYTFTSYVMHWVRQKPGQGLEWIGYINPYNDGTKYNEKFKGRATLTSDKSSSTAYMELSSLRSEDSAVYYCARGTYYYGSRVFDYWGQGTTVTVSSGGGGSEVQLVESGGGLVQPGGSLRLSCAASGFTFNTYAMNWVRQAPGKGLEWVARIRSKYNNYATYYADSVKDRFTISRDDSKNTLYLQMNSLRAEDTAVYYCVRHGNFGNSYVSWFAYWGQGTMVTVSSASTKGPSVFPLAPSSKSTSGGTAALGCLVKDYFPEPVTVSWNSGALTSGVHTFPAVLQSSGLYSLSSVVTVPSSSLGTQTYICNVNHKPSNTKVDKKVEPKSCPPCS chain 2: DVVMTQSPSSIPVTLGESVSISCRSSKSLQNVNGNTYLYWFQQRPGQSPQLLIYRMSNLNSGVPDRFSGSGSGTDFTLRISGVEPEDVGVYYCMQHLEYPLTFGAGTKLEIKGGGGSGGGGSGGGGSQVQLVQSGPELIKPGGSVKMSCKASGYTFTSYVMHWVRQKPGQGLEWIGYINPYNDGTKYNEKFKGRATLTSDKSSSTAYMELSSLRSEDSAVYYCARGTYYYGSRVFDYWGQGTTVTVSSGGGGSQAVVTQEPSLTVSPGGTVTLTCRSSTGAVTTSNYANWVQQKPGQAPRGLIGGTNKRAPGTPARFSGSLLGGKAALTLSGVQPEDEAEYYCALWYSNLWVFGGGTKLTVLGQPKAAPSVTLFPPSSEELQANKATLVCLISDFYPGAVTVAWKADSSPVKAGVETTTPSKQSNNKYAASSYLSLTPEQWKSHRSYSCQVTHEGSTVEKTVAPTECPPCS | 18.8 | 0.891 | 8.91
